Drawing on paper PMC10117073, this text covers stoichiometry N for 2 substances.

Assay [1] deals with proGeh (glycerol ester hydrolase, pro form) (S. aureus). Briefly: SEC; analytical gel filtration column (HiLoad 13/300 Super 200); molecular weight estimated from a standard curve (thyroglobulin, ferritin, aldolase, conalbumin, ovalbumin, RNase A, aprotinin).
The target in assay [2] is mature Geh (mGeh) (S. aureus). The description is as above.

Turning to “proGeh (glycerol ester hydrolase, pro form) (from UniProt A0A1R3UHM3 38-645) (enzyme)”, the stoichiometry N – broadly, a count of units in the complex or per binding partner – in assay [1] is 2.

Take mature Geh (mGeh) (enzyme): in assay [2], the stoichiometry N was 2.
